Results reported in patent US20250223580.

Assays:
[1] = test system: HA-Csx30 S526A/Q428A/R530A/Q531A
[2] = test system: Csx30 from Desulfonema ishimotonii, full length
[3] = test system: N-terminal HA-tagged Csx30 alanine mutants of individual regions of the Csx29-Csx30 interface
[4] = test system: TwinStrep-SUMO-Csx30 1-544 (C-terminal truncation of Csx30)
[5] = test system: Csx30 fragment, residues 396-565
Chain of Csx30 fragment, residues 396-565 (chain, as listed by the source): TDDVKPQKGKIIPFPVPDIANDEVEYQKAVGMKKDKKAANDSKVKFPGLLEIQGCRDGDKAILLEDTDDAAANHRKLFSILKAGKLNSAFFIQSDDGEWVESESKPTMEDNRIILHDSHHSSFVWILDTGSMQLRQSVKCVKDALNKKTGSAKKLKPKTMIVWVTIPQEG

Chain of Csx30 from Desulfonema ishimotonii, full length (chain, as listed by the source): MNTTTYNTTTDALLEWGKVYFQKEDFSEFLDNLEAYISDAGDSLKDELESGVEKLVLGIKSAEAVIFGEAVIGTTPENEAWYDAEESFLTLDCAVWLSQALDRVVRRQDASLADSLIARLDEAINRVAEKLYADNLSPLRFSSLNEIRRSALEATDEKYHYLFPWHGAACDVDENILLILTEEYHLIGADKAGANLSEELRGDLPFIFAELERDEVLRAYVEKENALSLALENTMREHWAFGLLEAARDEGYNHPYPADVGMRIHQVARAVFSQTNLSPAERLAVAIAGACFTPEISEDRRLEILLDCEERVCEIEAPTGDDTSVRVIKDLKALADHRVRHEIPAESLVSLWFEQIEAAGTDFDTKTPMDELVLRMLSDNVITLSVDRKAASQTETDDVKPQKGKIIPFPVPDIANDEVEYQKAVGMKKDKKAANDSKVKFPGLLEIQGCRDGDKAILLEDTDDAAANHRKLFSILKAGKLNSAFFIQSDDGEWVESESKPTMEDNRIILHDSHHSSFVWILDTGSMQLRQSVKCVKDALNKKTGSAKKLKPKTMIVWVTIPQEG
Chain of TwinStrep-SUMO-Csx30 1-544 (C-terminal truncation of Csx30) (chain, as listed by the source): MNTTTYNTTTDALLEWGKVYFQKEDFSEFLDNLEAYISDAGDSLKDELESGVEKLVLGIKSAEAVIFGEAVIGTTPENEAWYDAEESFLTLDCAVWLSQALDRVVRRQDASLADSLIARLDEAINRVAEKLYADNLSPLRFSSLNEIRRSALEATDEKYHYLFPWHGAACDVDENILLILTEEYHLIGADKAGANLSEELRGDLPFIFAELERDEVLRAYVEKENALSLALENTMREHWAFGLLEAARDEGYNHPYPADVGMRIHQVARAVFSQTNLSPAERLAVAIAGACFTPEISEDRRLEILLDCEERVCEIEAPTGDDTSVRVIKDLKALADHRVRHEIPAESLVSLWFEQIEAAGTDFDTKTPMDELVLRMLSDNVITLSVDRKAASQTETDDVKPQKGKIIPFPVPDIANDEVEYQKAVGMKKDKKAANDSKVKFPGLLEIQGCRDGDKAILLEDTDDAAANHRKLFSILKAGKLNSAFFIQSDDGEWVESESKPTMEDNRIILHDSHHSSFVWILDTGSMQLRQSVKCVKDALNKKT

Substance | stated: cleaved (target-RNA-dependent cleavage of HA-Csx30, anti-HA immunoblot) [1] | stated: cleaved (target-RNA-dependent cleavage of HA-Csx30, anti-HA immunoblot) (HA-Csx30 M527A) | cleavage of Csx30 in in vitro reactions (immunoblot, SDS-PAGE) [2] | cleavage of Up1 within the purified Up1-Up3 complex (SDS-PAGE, Coomassie) [2] | stated: cleaved (target-RNA-dependent cleavage of HA-Csx30, anti-HA immunoblot) [2] | in vitro cleavage of Csx30 alanine mutants (immunoblot) [3] | stated: cleaved (target-RNA-dependent cleavage of HA-Csx30, anti-HA immunoblot) (HA-Csx30 K551A/K553A) | in vitro cleavage of truncated Csx30 (SDS-PAGE) [4] | molar excess of Csx30 substrate cleaved in vitro [2] | in vitro cleavage of truncated Csx30 (SDS-PAGE) [5]
Cas7-11-Csx29-crRNA complex | S526A/Q428A/R530A/Q531A: without target RNA only the upper full-length band; with target RNA the upper band is faint and a product band stands just above the 50 kDa mark | M527A: without target RNA only the upper full-length band; with target RNA the upper band is faint and a product band stands just above the 50 kDa mark | Csx30, is specifically cleaved in response to a target RNA | only in the lane with gRAMP-CHAT + and target RNA + do bands appear at about 50 kDa and just above 15 kDa, with a weaker Up1 band; the lanes without gRAMP-CHAT, or with gRAMP-CHAT and no target RNA, show only Up1 and Up3; the Up3 band is unchanged | Wildtype: without target RNA only the upper full-length band; with target RNA the upper band is weak and a strong product band stands just above the 50 kDa mark | mutating individual regions of the Csx29-Csx30 interface did not significantly affect Csx30 cleavage | K551A/K553A: without target RNA only the upper full-length band; with target RNA a product band just above the 50 kDa mark, and a weaker upper band remains | – | – | –
dCas7-11-Csx29-crRNA complex (Cas7-11 D429A/D654A) | – | – | – | – | – | – | – | even a twenty amino acid truncation (Csx301-544) abolished cleavage activity | cleaving 100-fold molar excess of Csx30 substrate in minutes | Csx30 fragments containing residues 396-565 were efficiently cleaved in vitro
